Experimental data published in the DeepSol protein solubility set.

assay: soluble on expression in E. coli; label from the status in PepcDB or PDB records

Sequence | soluble on expression in E. coli
MAKLDKKVYERELELLQIELVKLQEWVKQEKLKLVVIFEGRDAAGKGGVIKTITEKLNPRVCRVAALPAPTEKEKTQWYFQRYVAHLPAGGEIVLFDRSWYNRAGVEKVMGFCSDEEYQEFLRSCPEFERMLQRSGIILLKYWFSVSDEEQERRFIERINTPLKRWKFSPMDLESRQRWAAYSRAKDEMFAYTDTKHCPWWVVPSDDKKRARLNCISHLLSSVEYQEIEHAPITLPEINKQGYVRPPIEDQTFVPQRY | not soluble
MAKNKVLGRGLADIFPEINEVYEQGLYERANRVVELGIDEVMPNPYQPRKVFSEDSLEELAQSIKEHGLLQPVLVVSENGRYHLIAGERRLRASKLAKMPTIKAIVVDIEQEKMREVALIENIQREDLNPLELARSYKELLESYQMTQEELSKIVKKSRAHVANIMRLLTLSSKVQNALLEEKITSGHAKVLVGLDGEKQELILNSIIGQKLSVRQTEDLARDFKINANFDNKKHGFKQTQTLIAGDELERLNQSLWDHYKLKAALKGNKIVLRCYENSLLEAFMKKMMS | not soluble
MAKTYDYLFKLLLIGDSGVGKTCVLFRFSDDSFNNSFISTIGIDFKIRTIELDGKKIKLQIWDTAGQERFRTITTAYYRGAMGIILVYDITNERSFENIKNWIRNIEEHAASDVERMIIGNKCDIEERREVSRDRGEQLAIEYGTKFLETSAKANLNIDEAFFTLARDIKSKMEQNEMRAGGSVSNTGRVNVGGSGTQKKSFFSNWSCNLL | not soluble
MAKTYKKIGEETKVIEATEPLTILLMGVDTGNVERTETWVGRSDSMILMTVNPKTKKTTMMSLERDILTRIESGNGQAHEAKLNSAYADGGAELAIETIQKMMNIHIDRYVMVNMRGLQKLVDAVGGITVNNILGFPISISDQEEFNTISIGVGEQHIGGEEALVYARMRYQDPEGDYGRQKRQREVIQKVMEKALSLNSIGHYQEILKALSDNMQTNIDLSAKSIPNLLGYKDSFKTIETQQLQGEGEILQGVSYQIVSRAHMLEMQNILRRSLGQEEVTQLETNAVLFEDLFGRAPVGDEDNLEHHHHHH | soluble
MAKVPDLFEDLKNCYSENEDYSSAIDHLSLNQKSFYDASYGSLHETCTDQFVSLRTSETSKMSNFTFKESRVTVSATSSNGKILKKRRLSFSETFTEDDLQSITHDLEETIQPRSAPYTYQSDLRYKLMKLVRQKFVMNDSLNQTIYQDVDKHYLSTTWLNDLQQEVKFDMYAYSSGGDDSKYPVTLKISDSQLFVSAQGEDQPVLLKELPETPKLITGSETDLIFFWKSINSKNYFTSAAYPELFIATKEQSRVHLARGLPSMTDFQIS | soluble
MAKYTREDIEKLVKEENVKYIRLQFTDILGTIKNVEIPVSQLGKALDNKVMFDGSSIEGFVRIEESDMYLYPDLNTFVIFPWTAEKGKVARFICDIYNPDGTPFEGDPRNNLKRILKEMEDLGFSDFNLGPEPEFFLFKLDEKGEPTLELNDKGGYFDLAPTDLGENCRRDIVLELEEMGFEIEASHHEVAPGQHEIDFKYAGAVRSCDDIQTFKLVVKTIARKHGLHATFMPKPLFGVNGSGMHCNLSLFKNGVNAFFDENADLQLSETAKHFIAGIVKHATSFTAVTNPTVNSYKRLVPGYEAPCYVAWSAQNRSPLIRIPASRGISTRVEVRSVDPAANPYLALSVLLAAGLDGIKNKLEAPAPIDRNIYVMSKEERMENGIVDLPATLAEALEEFKSNEVMVKALGEHLFEHFIEAKEIEWDMFRTQVHPWEREQYMSQY | not soluble
MALHHHHHHGVTGELRRRADGIWQRILAHPFVAELYAGTLPMEKFKYYLLQDYNYLVNFAKALSLAASRAPSVDLMKTALELAYGTVTGEMANYEALLKEVGLSLRDAAEAEPNRVNVSYMAYLKSTCALEGFYQCMAALLPCFWSYAEIAERHGGKLRENPVHVYKKWASVYLSPEYRGLVERLRAVLDSSGLSAEELWPYFKEASLYELEFWQAAYEGH | soluble
MALKTDIRGMIWRYPDYFIVGREQCREFARAVKCDHPAFFSEEAAADLGYDALVAPLTFVTILAKYVQLDFFRHVDVGMETMQIVQVDQRFVFHKPVLAGDKLWARMDIHSVDERFGADIVVTRNLCTNDDGELVMEAYTTLMGQQGDGSARLKWDKESGQVIRTALEHHHHHH | not soluble
MALPRITQKEMTEREQRELKTLLDRARIAHGRPLTNSETNSVKKEYIDKLMALREAEAKKARQLKKKQAYKPDTEASFSWSANTPTRGRR | not soluble
